Assay results as given in IntAct's records for PubMed 18832153.

B1: Structural maintenance of chromosomes protein 1A (Homo sapiens), Q14683 (parent)
chain: MGFLKLIEIENFKSYKGRQIIGPFQRFTAIIGPNGSGKSNLMDAISFVLGEKTSNLRVKTLRDLIHGAPVGKPAANRAFVSMVYSEEGAEDRTFARVIVGGSSEYKINNKVVQLHEYSEELEKLGILIKARNFLVFQGAVESIAMKNPKERTALFEEISRSGELAQEYDKRKKEMVKAEEDTQFNYHRKKNIAAERKEAKQEKEEADRYQRLKDEVVRAQVQLQLFKLYHNEVEIEKLNKELASKNKEIEKDKKRMDKVEDELKEKKKELGKMMREQQQIEKEIKEKDSELNQKRPQYIKAKENTSHKIKKLEAAKKSLQNAQKHYKKRKGDMDELEKEMLSVEKARQEFEERMEEESQSQGRDLTLEENQVKKYHRLKEEASKRAATLAQELEKFNRDQKADQDRLDLEERKKVETEAKIKQKLREIEENQKRIEKLEEYITTSKQSLEEQKKLEGELTEEVEMAKRRIDEINKELNQVMEQLGDARIDRQESSRQQRKAEIMESIKRLYPGSVYGRLIDLCQPTQKKYQIAVTKVLGKNMDAIIVDSEKTGRDCIQYIKEQRGEPETFLPLDYLEVKPTDEKLRELKGAKLVIDVIRYEPPHIKKALQYACGNALVCDNVEDARRIAFGGHQRHKTVALDGTLFQKSGVISGGASDLKAKARRWDEKAVDKLKEKKERLTEELKEQMKAKRKEAELRQVQSQAHGLQMRLKYSQSDLEQTKTRHLALNLQEKSKLESELANFGPRINDIKRIIQSREREMKDLKEKMNQVEDEVFEEFCREIGVRNIREFEEEKVKRQNEIAKKRLEFENQKTRLGIQLDFEKNQLKEDQDKVHMWEQTVKKDENEIEKLKKEEQRHMKIIDETMAQLQDLKNQHLAKKSEVNDKNHEMEEIRKKLGGANKEMTHLQKEVTAIETKLEQKRSDRHNLLQACKMQDIKLPLSKGTMDDISQEEGSSQGEDSVSGSQRISSIYAREALIEIDYGDLCEDLKDAQAEEEIKQEMNTLQQKLNEQQSVLQRIAAPNMKAMEKLESVRDKFQETSDEFEAARKRAKKAKQAFEQIKKERFDRFNACFESVATNIDEIYKALSRNSSAQAFLGPENPEEPYLDGINYNCVAPGKRFRPMDNLSGGEKTVAALALLFAIHSYKPAPFFVLDEIDAALDNTNIGKVANYIKEQSTCNFQAIVISLKEEFYTKAESLIGVYPEQGDCVISKVLTFDLTKYPDANPNPNEQ
partner: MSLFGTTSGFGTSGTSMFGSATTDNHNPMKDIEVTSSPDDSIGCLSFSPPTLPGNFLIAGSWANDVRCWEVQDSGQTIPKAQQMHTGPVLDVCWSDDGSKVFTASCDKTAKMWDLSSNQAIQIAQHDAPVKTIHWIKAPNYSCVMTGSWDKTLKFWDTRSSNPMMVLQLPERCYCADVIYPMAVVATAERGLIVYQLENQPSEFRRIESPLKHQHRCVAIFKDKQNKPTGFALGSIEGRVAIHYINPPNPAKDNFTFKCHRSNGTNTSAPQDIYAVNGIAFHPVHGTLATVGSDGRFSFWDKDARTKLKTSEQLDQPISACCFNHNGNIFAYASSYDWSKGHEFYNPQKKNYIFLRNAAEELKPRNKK

Variants of: B1
Details: with rae1l_human RAE1, P78406

Variant | effect of a mutation on the interaction
S966A | decreasing interaction
S957A | decreasing interaction
